From PMC5651801

Biological target: 4-HIL dehydrogenase (HILDH) from Bacillus thuringiensis 2e2, wild type (Bacillus thuringiensis 2e2)
Assay: crystal structure; HILDH with 10 mM NADH, sitting-drop vapor diffusion at 20 °C, 30% PEG 400, 0.1 M acetate pH 4.5, 0.2 M calcium acetate; 2.20 Å

stoichiometry N: 4
Substance: 4-HIL dehydrogenase (HILDH) from Bacillus thuringiensis 2e2, wild type (enzyme)
